# According to patent publication US12366576B2, “Compositions, assays, and methods for direct modulation of fatty acid metabolism” (Dana-Farber Cancer Institute, Inc., priority 2016, dated 2025):
# Bridge positions count the residues as written; N and C are the ends. Square brackets hold non-standard residues; d marks the D form. Ends that are not written are not given here. Peptide text beside a SMILES is read from it. S5 = C=CCCC[C@](C)(N)C(=O)O
# Columns and labels:
# [1] = target: T1, native VLCAD (Mus musculus, UniProt P50544); test: Biotinylated SAHB pulldown from MEF lysates, anti-VLCAD Western analysis; format: binding; settings: for best overall binders to VLCAD based on pull-downs and ITC: summary of binding properties; for summary of binding properties: binding to VLCAD: pull-downs and ITC
# T1 construct: As for native VLCAD from MEF lysates; endogenous in cells; host or cells: SV-40-transformed wild-type mouse embryonic fibroblasts (lysate)
# T1 sequence (P50544 42-656): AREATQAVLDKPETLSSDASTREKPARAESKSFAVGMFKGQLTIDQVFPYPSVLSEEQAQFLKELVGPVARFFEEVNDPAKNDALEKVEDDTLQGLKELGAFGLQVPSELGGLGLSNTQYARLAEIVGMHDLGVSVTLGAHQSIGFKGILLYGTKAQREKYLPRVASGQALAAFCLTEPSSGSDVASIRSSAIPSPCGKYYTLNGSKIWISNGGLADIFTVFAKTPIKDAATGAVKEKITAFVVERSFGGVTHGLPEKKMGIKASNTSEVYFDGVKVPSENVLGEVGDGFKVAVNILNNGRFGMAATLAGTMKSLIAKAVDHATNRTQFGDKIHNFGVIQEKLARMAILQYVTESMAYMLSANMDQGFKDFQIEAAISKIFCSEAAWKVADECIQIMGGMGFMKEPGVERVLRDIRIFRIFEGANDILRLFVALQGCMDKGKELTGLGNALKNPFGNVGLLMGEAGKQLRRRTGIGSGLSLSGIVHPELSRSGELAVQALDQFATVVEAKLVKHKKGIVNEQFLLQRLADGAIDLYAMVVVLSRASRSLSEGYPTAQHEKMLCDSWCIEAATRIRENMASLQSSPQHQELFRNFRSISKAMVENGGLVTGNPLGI
# From the text: To validate the MS result, the pulldowns were repeated and eluates run on a gel for anti-VLCAD Western blot analysis. […] All peptides faithfully recapitulated native BH3-binding propensities for endogenous MCL-1 protein (FIG. 8). The eluates were then probed for the other members of the acyl-CoA dehydrogenase family that manifest shorter fatty acid substrate specificities. MCL-1 SAHBD was able to pull down VLCAD, but not MCAD or SCAD (FIG. 9). Because the traditional MCL-1 staple location differs from that of the BIM, BID, and BAD SAHBs, it was important to confirm that the observed VLCAD binding specificity was due to BH3 sequence selectivity, not staple position. A BIM SAHB with the traditional MCL-1 staple (BIM SAHBF), and a MCL-1 stapled peptide with the traditional BIM staple (MCL-1 SAHBA), were generated. […] To confirm that the selective interaction between MCL-1 SAHBD and VLCAD is direct, recombinant VLCAD was generated and purified by size exclusion chromatography (FIGS. 11 and 12).
# The binding determinants for the MCL-1 BH3/VLCAD interaction were investigated by generating a series of biotinylated MCL-1 SAHBD alanine point mutants (FIG. 18A) and performing streptavidin pull-downs from MEF lysates, followed by VLCAD and MCL-1 western analysis of the resulting eluates. […] Native alanines and residues not mutated are colored white. The dotted semicircles highlight the distinctive MCL-1 BH3 binding interfaces for VLCAD versus MCL-1 engagement, as defined by the differential sensitivities to alanine mutagenesis.
# Wild-type MEFs were trypsinized, washed once with cold PBS, and lysed on ice with NP-40 lysis buffer (50 mM Tris, pH 7.4, 150 mM NaCl, 0.5% (v/v) NP-40, complete protease inhibitor pellet (Roche)) using 1 ml of lysis buffer for every 10 million cells lysed. Cellular debris was pelleted at 14,000 g for 10 min at 4° C., and the supernatant was quantified using the BCA Protein Assay Kit (Thermo Fisher Scientific). 2 mg of lysate per pulldown were then exposed to 50 μL of pre-equilibrated High Capacity Streptavidin Agarose beads (Thermo Fisher Scientific). The pre-cleared lysates were then incubated with 15 nmol biotinylated SAHBs (or vehicle, 1.5% (v/v) DMSO) overnight at 4° C., followed by addition of 50 μL of pre-equilibrated High Capacity Streptavidin Agarose beads for 2 hours at 4° C. The beads were then pelleted and washed with NP-40 lysis buffer three times before eluting the protein sample from the beads by heating at 70° C. for 10 min in SDS loading buffer. Samples were then subjected to electrophoresis and either Western analysis or Coomassie stain (SimplyBlue Safe Stain, Thermo Fisher Scientific). The antibodies used for Western analysis were the following: MCL-1 (Rockland 600-401-394; 1:1000 in 3% BSA), VLCAD (Thermo Fisher Scientific PA5-29959; 1:1000 in 1% milk+0.1% Tween-20), MCAD (Thermo Fisher Scientific PA5-27201; 1:1000 in 3% BSA), and SCAD (Abcam ab154823; 1:1000 in 3% BSA). Coomassie stained gels were then processed for proteomics analysis (see below). Biotinylated SAHB pulldowns of recombinant protein were performed as above incubating 5 nmol of SAHB with 10 pmol of rVLCAD in 500 μL total volume. Densitometry analyses were performed using ImageJ software.
# [2] = target: T2, VLCAD (Mus musculus, UniProt P50544); test: Biotinylated SAHB streptavidin pulldown from MEF lysates with MS-based protein identification; format: binding; settings: wild-type MEF lysates; three biological replicates; thresholds fold change >8 and p<0.005 versus vehicle
# T2 construct: As for native VLCAD from MEF lysates; endogenous in cells; host or cells: SV-40-transformed wild-type mouse embryonic fibroblasts (lysate)
# T2 sequence (P50544 42-656): T1 sequence (P50544 42-656)
# Method: An exploratory proteomics analysis was conducted to identify proteins that interact with the MCL-1 BH3 domain helix. An extensive library of MCL-1 stapled BH3 peptides (FIG. 2) was generated to both identify novel protein interactors by mass spectrometry and then deploy the stapled peptide constructs as novel probes to dissect and pharmacologically modulate the identified protein interactors and associated signaling pathways. As an example, an N-terminally biotinylated stapled peptide designed based on the sequence of MCL-1's BH3 domain (Btn-MCL-1 SAHBD), or vehicle, was incubated with wild-type mouse embryonic fibroblast (MEF) lysates, followed by high stringency streptavidin capture. To validate the proteomics workflow and ensure that Btn-MCL-1 SAHBD could, in fact, engage protein interactors in a lysate, eluates were first run on a gel for anti-MCL-1 Western analysis. […]
# Wild-type MEFs were trypsinized, washed once with cold PBS, and lysed on ice with NP-40 lysis buffer (50 mM Tris, pH 7.4, 150 mM NaCl, 0.5% (v/v) NP-40, complete protease inhibitor pellet (Roche)) using 1 ml of lysis buffer for every 10 million cells lysed. Cellular debris was pelleted at 14,000 g for 10 min at 4° C., and the supernatant was quantified using the BCA Protein Assay Kit (Thermo Fisher Scientific). […]
summary of binding properties: binding to VLCAD [1],Compound,further results
Binds,CC(=O)N[C@@H](CCCNC(=N)N)C(=O)N[C@@H](CCCCN)C(=O)N[C@@H](C)C(=O)N[C@@H](CC(C)C)C(=O)N[C@@H](CCC(=O)O)C(=O)N[C@H](C(=O)N[C@@H](CC(C)C)C(=O)N[C@@H](CCCNC(=N)N)C(=O)N[C@@H](CCCNC(=N)N)C(=O)N[C@H](C(=O)NCC(=O)N[C@@H](CC(=O)O)C(=O)NCC(=O)N[C@@H](C)C(=O)N[C@@]1(C)CCCC=CCCC[C@@](C)(C(=O)N[C@H](C(=O)N[C@@H](C)C(=O)N[C@@H](Cc2ccccc2)C(N)=O)[C@@H](C)O)NC(=O)[C@H](Cc2c[nH]cn2)NC(=O)[C@H](CC(N)=O)NC(=O)[C@H](CCCNC(=N)N)NC1=O)C(C)C)[C@@H](C)O [V220A] (Ac-RKALETLRRVGDGA[S5]RNH[S5]TAF-NH2; staple 15-19; N-terminus and C-terminus assumed),best overall binders to VLCAD based on pull-downs and ITC [1]: Best overall binders to VLCAD
Binds,"D218A: biotinylated MCL-1 SAHBD alanine point mutant D218A (RKALETLRRVGAGV[S5]RNH[S5]TAF; staple 15-19; also: biotinylated, place not given here)",best overall binders to VLCAD based on pull-downs and ITC [1]: Best overall binders to VLCAD
Does not bind,"F228A: biotinylated MCL-1 SAHBD alanine point mutant F228A (RKALETLRRVGDGV[S5]RNH[S5]TAA; staple 15-19; also: biotinylated, place not given here)",
Does not bind,"L213A: biotinylated MCL-1 SAHBD alanine point mutant L213A (RKALETARRVGDGV[S5]RNH[S5]TAF; staple 15-19; also: biotinylated, place not given here)",effect of alanine mutation on biotinylated MCL-1 SAHBD interaction with VLCAD ([1]; pull-downs from MEF lysates): disrupted
Does not bind,"R207A: biotinylated MCL-1 SAHBD alanine point mutant R207A (AKALETLRRVGDGV[S5]RNH[S5]TAF; staple 15-19; also: biotinylated, place not given here)",
Does not bind,"R214A: biotinylated MCL-1 SAHBD alanine point mutant R214A (RKALETLARVGDGV[S5]RNH[S5]TAF; staple 15-19; also: biotinylated, place not given here)",
weakly or not,"R215A: biotinylated MCL-1 SAHBD alanine point mutant R215A (RKALETLRAVGDGV[S5]RNH[S5]TAF; staple 15-19; also: biotinylated, place not given here)",

Compound,summary of binding properties: binding to VLCAD [1],further results
"MCL-1 SAHBD: hydrocarbon-stapled peptide mimicking the MCL-1 BH3 domain (Stabilized Alpha-Helix of BCL-2 Domain), SEQ ID NO:19 (RKALETLRRVGDGV[S5]RNH[S5]TAF; staple 15-19)",Binds,"VLCAD identified by MS in pulldown eluates [2]: repeatedly identified as a high stringency interactor; pull down of VLCAD from cellular lysates ([1]; wild-type MEF lysates, 15 nmol biotinylated SAHB): VLCAD was detected"
